Experimental data reported in patent US20210063414A1, “METHODS FOR PREVENTING AND/OR TREATING BONE LOSS CONDITIONS BY MODULATING IRISIN” (Dana-Farber Cancer Institute, Inc., priority 2018, published 2021).

What was measured:
[1] = target: T1, MLO-Y4 cell surface proteins (Mus musculus, UniProt P70388); assay: Crosslinking/co-immunoprecipitation/mass spectrometry (TMT quantitative proteomics) to identify irisin receptors; format: binding; details: co-precipitated protein Rad50 (RAD50_MOUSE)
T1 construct: endogenous in cells; host or cells: MLO-Y4
T1 sequence (P70388 1-1312): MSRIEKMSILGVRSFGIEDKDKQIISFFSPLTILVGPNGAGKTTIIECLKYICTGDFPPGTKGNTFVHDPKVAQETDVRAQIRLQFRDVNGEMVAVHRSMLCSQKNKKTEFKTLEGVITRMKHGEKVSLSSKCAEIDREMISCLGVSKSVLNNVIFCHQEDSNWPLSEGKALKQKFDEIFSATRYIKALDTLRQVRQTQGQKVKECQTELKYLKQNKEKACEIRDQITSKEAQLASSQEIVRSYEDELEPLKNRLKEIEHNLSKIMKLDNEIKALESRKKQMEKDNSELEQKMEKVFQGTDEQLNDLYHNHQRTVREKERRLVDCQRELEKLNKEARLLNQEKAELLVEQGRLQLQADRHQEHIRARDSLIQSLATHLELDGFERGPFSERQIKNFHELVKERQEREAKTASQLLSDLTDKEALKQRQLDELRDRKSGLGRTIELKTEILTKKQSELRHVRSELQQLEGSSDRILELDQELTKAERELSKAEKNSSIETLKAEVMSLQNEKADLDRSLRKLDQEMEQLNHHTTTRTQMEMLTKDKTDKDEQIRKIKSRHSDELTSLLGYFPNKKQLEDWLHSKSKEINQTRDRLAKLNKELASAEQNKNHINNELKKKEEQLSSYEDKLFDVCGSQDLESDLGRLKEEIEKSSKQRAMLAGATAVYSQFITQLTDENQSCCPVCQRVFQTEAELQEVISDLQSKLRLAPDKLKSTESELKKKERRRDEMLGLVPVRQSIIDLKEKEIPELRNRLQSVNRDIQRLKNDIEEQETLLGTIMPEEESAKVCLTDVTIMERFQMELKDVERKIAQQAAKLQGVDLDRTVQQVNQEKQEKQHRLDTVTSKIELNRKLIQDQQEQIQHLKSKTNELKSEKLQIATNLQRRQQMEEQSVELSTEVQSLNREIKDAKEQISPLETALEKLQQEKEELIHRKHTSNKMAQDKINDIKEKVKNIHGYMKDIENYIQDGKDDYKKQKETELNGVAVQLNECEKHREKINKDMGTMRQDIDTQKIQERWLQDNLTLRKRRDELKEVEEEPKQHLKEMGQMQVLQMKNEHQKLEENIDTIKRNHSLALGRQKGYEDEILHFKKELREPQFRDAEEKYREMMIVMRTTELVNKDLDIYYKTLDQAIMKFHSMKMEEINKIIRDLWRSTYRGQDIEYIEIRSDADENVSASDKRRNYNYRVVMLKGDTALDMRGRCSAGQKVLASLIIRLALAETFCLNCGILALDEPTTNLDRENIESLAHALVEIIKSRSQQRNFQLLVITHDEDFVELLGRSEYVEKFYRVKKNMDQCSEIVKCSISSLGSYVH
Summary of the method: (§1)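 Mouse MLO-Y4 cells were switched to serum-free FreeStyle medium for 4 h, chilled, then exposed to 10 nM His-tagged irisin (or adipsin as control) for 20 min. Cells were crosslinked with 1.5 mM DTSSP (30 min, ice), and bound proteins were pulled down on Ni-NTA and eluted with 250 mM imidazole. Eluates were separated by SDS-PAGE, trypsin-digested in gel, TMT 6-plex labelled and quantified by MS3-based LC-MS/MS on an Orbitrap Fusion Lumos.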

[2] = target: T2, MLO-Y4 cell surface proteins (Mus musculus, UniProt Q3U1J4); assay: as above; format: binding; details: co-precipitated protein Ddb1 (DDB1_MOUSE)
T2 construct: endogenous in cells; host or cells: MLO-Y4
Summary of the method: as §1

T2 sequence (Q3U1J4 whole entry): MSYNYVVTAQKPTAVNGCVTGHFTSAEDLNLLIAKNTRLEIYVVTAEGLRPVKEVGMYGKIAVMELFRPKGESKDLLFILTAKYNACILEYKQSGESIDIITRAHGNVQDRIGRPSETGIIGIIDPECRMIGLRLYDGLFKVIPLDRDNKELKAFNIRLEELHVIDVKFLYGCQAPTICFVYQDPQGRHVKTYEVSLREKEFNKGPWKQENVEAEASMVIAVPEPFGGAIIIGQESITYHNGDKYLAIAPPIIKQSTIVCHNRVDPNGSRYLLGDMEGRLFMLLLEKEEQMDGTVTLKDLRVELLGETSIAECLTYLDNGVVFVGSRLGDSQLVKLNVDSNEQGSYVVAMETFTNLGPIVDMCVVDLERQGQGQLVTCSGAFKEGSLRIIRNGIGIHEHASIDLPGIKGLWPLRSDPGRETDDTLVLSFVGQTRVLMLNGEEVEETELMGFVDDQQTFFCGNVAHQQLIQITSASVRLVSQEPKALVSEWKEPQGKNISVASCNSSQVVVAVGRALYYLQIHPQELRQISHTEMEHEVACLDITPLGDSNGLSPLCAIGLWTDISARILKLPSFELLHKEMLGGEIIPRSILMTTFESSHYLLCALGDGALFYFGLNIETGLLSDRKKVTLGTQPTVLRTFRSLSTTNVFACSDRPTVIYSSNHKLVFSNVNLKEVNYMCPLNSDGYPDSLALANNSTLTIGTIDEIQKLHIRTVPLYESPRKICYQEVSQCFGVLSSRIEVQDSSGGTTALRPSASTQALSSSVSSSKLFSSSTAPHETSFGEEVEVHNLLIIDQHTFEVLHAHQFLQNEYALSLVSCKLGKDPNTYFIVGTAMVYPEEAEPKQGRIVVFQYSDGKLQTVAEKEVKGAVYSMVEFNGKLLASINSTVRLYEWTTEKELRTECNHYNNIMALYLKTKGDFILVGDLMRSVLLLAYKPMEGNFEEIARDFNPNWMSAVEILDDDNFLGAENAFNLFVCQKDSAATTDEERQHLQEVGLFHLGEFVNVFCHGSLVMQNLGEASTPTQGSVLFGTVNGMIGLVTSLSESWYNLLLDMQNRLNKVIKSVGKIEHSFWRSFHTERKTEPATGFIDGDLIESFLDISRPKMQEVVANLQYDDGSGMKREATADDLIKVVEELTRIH

B1: irisin: secreted cleaved form of FNDC5; recombinant human/mouse irisin with C-terminal his tag produced in HEK293 cells (protein)
chain: DSPSAPVNVTVRHLKANSAVVSWDVLEDEVVIGFAISQQKKDVRMLRFIQEVNTTTRSCALWDLEEDTEYIVHVQAISIQGQSPASEPVLFKTPREAEKMASKNKDEVTMKE
modifications: left off: small tags and cut ends
notes: secreted cleaved form of FNDC5; recombinant human/mouse irisin with C-terminal his tag produced in HEK293 cells
[1]
  TMT signal-to-noise ratio: 10.8209
  irisin/adipsin TMT signal-to-noise ratio: 0.026
[2]
  TMT signal-to-noise ratio: 149.943
  irisin/adipsin TMT signal-to-noise ratio: 0.352
